Test results: publication PMC3359404

Tests used:
Experiment in all cases: purified protein
Details in all cases: 10 mM pyruvate, 0.3 mM NADPH, 150 mM PIPES pH 6.6, room temperature
[1] = system: N[C@@H](Cc1c[nH]cn1)C(=O)O
C[S+](C)CC[C@H](N)C(=O)O = system: C[S+](C)CC[C@H](N)C(=O)O
N=C(N)NOCC[C@H](N)C(=O)O = system: N=C(N)NOCC[C@H](N)C(=O)O
N[C@@H](CCS)C(=O)O = system: N[C@@H](CCS)C(=O)O
CSCC[C@H](N)C(=O)O = system: CSCC[C@H](N)C(=O)O
NCC(=O)O = system: NCC(=O)O
N[C@@H](CCO)C(=O)O = system: N[C@@H](CCO)C(=O)O
N[C@@H](CS)C(=O)O = system: N[C@@H](CS)C(=O)O
NC(=O)CC[C@H](N)C(=O)O = system: NC(=O)CC[C@H](N)C(=O)O

With “Ocs (His6-Ocs), octopine synthase (Agrobacterium tumefaciens (strain 15955))” the Km [1] was 2.0 ± 0.21 mM, the kcat [1] was 20 s⁻¹ and the kcat/Km [1] was 10000 M⁻¹ s⁻¹. It also gave a Km (C[S+](C)CC[C@H](N)C(=O)O) of 0.31 ± 0.04 mM, a kcat (C[S+](C)CC[C@H](N)C(=O)O) of 0.817 s⁻¹ and a kcat/Km (C[S+](C)CC[C@H](N)C(=O)O) of 2670 M⁻¹ s⁻¹. The Km (N=C(N)NOCC[C@H](N)C(=O)O) was 2.8 ± 0.5 mM, the kcat (N=C(N)NOCC[C@H](N)C(=O)O) was 16.7 s⁻¹ and the kcat/Km (N=C(N)NOCC[C@H](N)C(=O)O) was 6000 M⁻¹ s⁻¹. For the same substance, the Km (N[C@@H](CCS)C(=O)O) was 8.9 ± 1.1 mM, the kcat (N[C@@H](CCS)C(=O)O) was 26.7 s⁻¹ and the kcat/Km (N[C@@H](CCS)C(=O)O) was 3000 M⁻¹ s⁻¹. For the same substance, the Km (CSCC[C@H](N)C(=O)O) was 27 ± 6 mM, the kcat (CSCC[C@H](N)C(=O)O) was 78.3 s⁻¹ and the kcat/Km (CSCC[C@H](N)C(=O)O) was 2830 M⁻¹ s⁻¹. The Km (NCC(=O)O) was 30 ± 6 mM, the kcat/Km (NCC(=O)O) was 717 M⁻¹ s⁻¹ and the Km (N[C@@H](CCO)C(=O)O) was 15 ± 3 mM. For the same substance, the kcat (N[C@@H](CCO)C(=O)O) was 30 s⁻¹, the kcat/Km (N[C@@H](CCO)C(=O)O) was 2000 M⁻¹ s⁻¹ and the Km (N[C@@H](CS)C(=O)O) was 11 ± 3 mM. The kcat (N[C@@H](CS)C(=O)O) was 11.2 s⁻¹, the kcat/Km (N[C@@H](CS)C(=O)O) was 1020 M⁻¹ s⁻¹ and the Km (NC(=O)CC[C@H](N)C(=O)O) was 5.6 ± 0.6 mM. For the same substance, the kcat (NC(=O)CC[C@H](N)C(=O)O) was 13 s⁻¹ and the kcat/Km (NC(=O)CC[C@H](N)C(=O)O) was 2330 M⁻¹ s⁻¹.
